The results in this text go back to patent US20160130569, “A LAGLIDADG HOMING ENDONUCLEASE CLEAVING THE T CELL RECEPTOR ALPHA GENE AND USES THEREOF” (CELLECTIS, published 2016).

The target of data set [1] is T1, TCRA_S02_2E5 (Ophiostoma novo-ulmi (engineered)).
T1 chain: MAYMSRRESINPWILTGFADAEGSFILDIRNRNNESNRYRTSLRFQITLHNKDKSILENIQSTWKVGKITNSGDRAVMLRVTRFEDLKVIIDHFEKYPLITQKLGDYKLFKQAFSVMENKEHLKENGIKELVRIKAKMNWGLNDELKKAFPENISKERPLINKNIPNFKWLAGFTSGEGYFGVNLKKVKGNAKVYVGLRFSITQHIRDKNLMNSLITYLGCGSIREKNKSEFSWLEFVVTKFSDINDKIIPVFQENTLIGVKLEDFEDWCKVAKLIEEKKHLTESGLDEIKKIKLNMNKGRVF
Nature of the data set: flow; yeast surface display titration; Example 3 text names the variant as TCRA_S02_2E5_RD1_08. As to conditions: label: fluorescent dye (Alexa Fluor 647) in yeast display assays. The method, then: (§1) Samples of yeast displaying each LHE variant were independently incubated with increasing concentrations of fluorescent dye-labeled synthetic DNA substrates (y-axis). An antibody to a C-terminal epitope was also included (x-axis) such that DNA binding activity could be normalized to the amount of LHE protein expressed on the yeast surface, creating the co-linear pattern, with higher signal in the y-axis per x-axis signal where affinity is greater.
The LHE containing the engineered DNA recognition interfaces for the TCRA_S02 (SEQ ID NO: 3) target was tested for affinity, specificity, and toxicity characteristics. Affinity was tested by independently incubating yeast displaying the TCRA_S02_2E5_RD1_08 variant, (SEQ ID NO: 7, encoding SEQ ID NO: 8) with DNA substrates containing its target sequences at various concentrations. See FIG. 6 showing the affinity properties of this variant relative to the wild-type I-Onul protein. […] Toxicity was analyzed by in vitro transcribing each LHE into mRNA and transfecting primary human T cells by electroporation, followed by flow cytometry analysis of the survival of the cells relative to transfection with a control mRNA encoding a blue fluorescent protein (BFP). […]

The target of data set [2] is T2, I-OnuI wild type (OnuWT) (Ophiostoma novo-ulmi).
T2 chain: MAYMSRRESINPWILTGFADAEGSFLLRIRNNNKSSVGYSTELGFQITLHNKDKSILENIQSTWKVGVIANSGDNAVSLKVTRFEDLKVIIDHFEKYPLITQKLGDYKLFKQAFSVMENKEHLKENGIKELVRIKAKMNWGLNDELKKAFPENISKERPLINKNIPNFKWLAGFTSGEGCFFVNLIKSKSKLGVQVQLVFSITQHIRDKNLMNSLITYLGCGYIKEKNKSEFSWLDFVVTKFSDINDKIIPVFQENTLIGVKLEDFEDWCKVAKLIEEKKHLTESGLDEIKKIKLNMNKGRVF
In words: flow; yeast surface display titration. As to conditions: label: Alexa Fluor 647. The method, then: as §1
The LHE containing the engineered DNA recognition interfaces for the TCRA_S02 (SEQ ID NO: 3) target was tested for affinity, specificity, and toxicity characteristics. Affinity was tested by independently incubating yeast displaying the TCRA_S02_2E5_RD1_08 variant, (SEQ ID NO: 7, encoding SEQ ID NO: 8) with DNA substrates containing its target sequences at various concentrations. See FIG. 6 showing the affinity properties of this variant relative to the wild-type I-Onul protein. […] Toxicity was analyzed by in vitro transcribing each LHE into mRNA and transfecting primary human T cells by electroporation, followed by flow cytometry analysis of the survival of the cells relative to transfection with a control mRNA encoding a blue fluorescent protein (BFP).

B1: TCRA_S02 (dsDNA)
DNA 1: TGTCTGCCTATTCACCGATTTT
DNA 2: AAAATCGGTGAATAGGCAGACA
Turning to B1, the Kd in data set [1] is roughly 0.09 nM.

B2: I-OnuI native target (dsDNA)
DNA 1: TTTCCACTTATTCAACCTTTTA
DNA 2: TAAAAGGTTGAATAAGTGGAAA
B2 yielded a Kd in data set [2] of roughly 0.08 nM.
